From US20210221908A1 (LAMKAP BIO BETA, published 2021)
Substitutions are numbered along the chain they refer to.

T1: human CEACAM5 on MKN-45 cells (human, UniProt P06731 35-685)
T1 construct: endogenous CEA of MKN-45 gastric adenocarcinoma cells, which also carry CD47 and CEACAM6; UniProtKB P06731; also called CD66e
T1 sequence: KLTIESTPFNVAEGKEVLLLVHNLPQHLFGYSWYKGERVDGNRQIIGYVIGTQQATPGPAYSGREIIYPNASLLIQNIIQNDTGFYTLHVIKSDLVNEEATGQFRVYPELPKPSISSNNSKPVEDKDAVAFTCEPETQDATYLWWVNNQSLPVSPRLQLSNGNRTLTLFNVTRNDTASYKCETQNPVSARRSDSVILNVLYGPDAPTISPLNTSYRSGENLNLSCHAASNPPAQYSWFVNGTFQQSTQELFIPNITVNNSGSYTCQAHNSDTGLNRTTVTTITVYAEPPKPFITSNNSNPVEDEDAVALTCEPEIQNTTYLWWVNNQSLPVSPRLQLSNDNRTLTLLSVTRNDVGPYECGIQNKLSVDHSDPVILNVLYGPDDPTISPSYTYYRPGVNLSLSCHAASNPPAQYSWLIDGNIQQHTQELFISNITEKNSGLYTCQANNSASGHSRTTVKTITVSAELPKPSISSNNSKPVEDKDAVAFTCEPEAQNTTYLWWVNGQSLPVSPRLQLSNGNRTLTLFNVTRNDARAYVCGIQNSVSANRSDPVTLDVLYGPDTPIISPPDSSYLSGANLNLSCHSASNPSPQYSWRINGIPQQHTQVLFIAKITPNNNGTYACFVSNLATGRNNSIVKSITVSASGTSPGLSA

T2: human CEACAM6 on MKN-45 cells (human, UniProt P40199 35-320)
T2 construct: whole, on cells
T2 sequence (looked up): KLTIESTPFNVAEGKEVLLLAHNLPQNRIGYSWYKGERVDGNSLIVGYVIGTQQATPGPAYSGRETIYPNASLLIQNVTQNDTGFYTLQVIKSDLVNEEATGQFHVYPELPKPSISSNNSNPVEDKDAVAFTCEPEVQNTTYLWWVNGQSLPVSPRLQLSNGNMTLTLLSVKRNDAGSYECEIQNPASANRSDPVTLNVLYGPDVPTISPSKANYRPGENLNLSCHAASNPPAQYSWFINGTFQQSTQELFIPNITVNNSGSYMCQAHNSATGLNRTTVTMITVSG

T3: commercial shed CEA (BioRad) (human, UniProt P06731 35-685, limits assumed)
T3 sequence: T1 sequence

B1: K2AC18 CEAxCD47 bispecific antibody (bispecific antibody, human IgG1, kappa, lambda)
heavy: not shown
light 1: not shown
light 2: SYVLTQPPSVSVAPGKTARITCGGNGIGDASVHWYQQKPGQAPVLVIYSTTTRPSGIPERFSGSNSGNTATLTISRVEAGDEADYYCQVWDGFGPRHRAVFGGGTKLTVLGQPKAAPSVTLFPPSSEELQANKATLVCLISDFYPGAVTVAWKADSSPVKAGVETTTPSKQSNNKYAASSYLSLTPEQWKSHRSYSCQVTHEGSTVEKTVAPTECS
notes: kappa-lambda body, human IgG1, common heavy chain; CEA arm light chain 1A2 (AC18)
B2: K2AC39 CD47xCEA bispecific antibody (bispecific antibody, human IgG1, kappa, lambda)
heavy: not shown
light 1: not shown
light 2: QSVLTQPPSVSAAPGQKVTISCSGSSSEITASGVSWYQQLPGTAPKLLIYDNNKRPSGIPDRFSGSKSGTSATLGITGLQTGDEADYYCGTWDFPPSRFVFGGGTKLTVLGQPKAAPSVTLFPPSSEELQANKATLVCLISDFYPGAVTVAWKADSSPVKAGVETTTPSKQSNNKYAASSYLSLTPEQWKSHRSYSCQVTHEGSTVEKTVAPTECS
notes: K2 = KA3 CD47 light chain, AC39 = 1B2 CEA light chain
B3: K2AC27 CEAxCD47 bispecific antibody (bispecific antibody, human IgG1, kappa, lambda)
heavy: not shown
light 1: not shown
light 2: QSVLTQPPSVSGAPGQRVTISCTGSSSNIGYADKVHWYQQLPGTAPKLLIYNNSDRPSGVPDRFSGSKSGTSASLAITGLQAEDEADYYCQSYDGYNMLTAVFGGGTKLTVLGQPKAAPSVTLFPPSSEELQANKATLVCLISDFYPGAVTVAWKADSSPVKAGVETTTPSKQSNNKYAASSYLSLTPEQWKSHRSYSCQVTHEGSTVEKTVAPTECS
notes: kappa-lambda body, human IgG1, common heavy chain; CEA arm light chain 2C11 (AC27)
B4: K2AC26 CEAxCD47 bispecific antibody (bispecific antibody, human IgG1, kappa, lambda)
heavy: not shown
light 1: not shown
light 2: QSALTQPASVSGSPGQSITISCTGTSSDVKYANAVSWYQQHPGKAPKLMIYSNSIRPSGVSNRFSGSKSGNTASLTISGLQAEDEADYYCSSYDPRGNLLIRVFGGGTKLTVLGQPKAAPSVTLFPPSSEELQANKATLVCLISDFYPGAVTVAWKADSSPVKAGVETTTPSKQSNNKYAASSYLSLTPEQWKSHRSYSCQVTHEGSTVEKTVAPTECS
notes: kappa-lambda body, human IgG1, common heavy chain; CEA arm light chain 2F7 (AC26)
B5: K2AC29 CEAxCD47 bispecific antibody (bispecific antibody, human IgG1, kappa, lambda)
heavy: not shown
light 1: not shown
light 2: QSALTQPASVSGSPGQSITISCTGTSSDVEFTNGVSWYQQHPGKAPKLMIYGFSSRPSGVSNRFSGSKSGNTASLTISGLQAEDEADYYCSSYDPPWHLLARVFGGGTKLTVLGQPKAAPSVTLFPPSSEELQANKATLVCLISDFYPGAVTVAWKADSSPVKAGVETTTPSKQSNNKYAASSYLSLTPEQWKSHRSYSCQVTHEGSTVEKTVAPTECS
notes: kappa-lambda body, human IgG1, common heavy chain; CEA arm light chain 2B5 (AC29)
B6: K2AC25 CEAxCD47 bispecific antibody (bispecific antibody, human IgG1, kappa, lambda)
heavy: not shown
light 1: not shown
light 2: QSVLTQPPSVSAAPGQKVTISCSGSSSNIGITPVSWYQQLPGTAPKLLIYSNNFRPSGIPDRFSGSKSGTSATLGITGLQTGDEADYYCGTWDRTGHEIRPVFGGGTKLTVLGQPKAAPSVTLFPPSSEELQANKATLVCLISDFYPGAVTVAWKADSSPVKAGVETTTPSKQSNNKYAASSYLSLTPEQWKSHRSYSCQVTHEGSTVEKTVAPTECS
notes: kappa-lambda body, human IgG1, common heavy chain; CEA arm light chain 2F4 (AC25)
B7: K2AC5 CEAxCD47 bispecific antibody (bispecific antibody, human IgG1, kappa, lambda)
heavy: not shown
light 1: not shown
light 2: QSVLTQPPSVSAAPGQKVTISCSGSSSNIGYGLVSWYQQLPGTAPKLLIYAGNLRPSGIPDRFSGSKSGTSATLGITGLQTGDEADYYCGTWDFNYGVVFGGGTKLTVLGQPKAAPSVTLFPPSSEELQANKATLVCLISDFYPGAVTVAWKADSSPVKAGVETTTPSKQSNNKYAASSYLSLTPEQWKSHRSYSCQVTHEGSTVEKTVAPTECS
notes: kappa-lambda body, human IgG1, common heavy chain; CD47 arm light chain KA3 (K2), CEA arm light chain 1D9 (AC5)
B8: K2AC22 CEAxCD47 bispecific antibody (bispecific antibody, human IgG1, kappa, lambda)
heavy: not shown
light 1: not shown
light 2: B7 light 2 with G30A, Y31N, L33I, A51F, G52D, N95S, V98I
notes: kappa-lambda body, human IgG1, common heavy chain; CEA arm light chain 1G6 (AC22)
B9: K2AC10 CEAxCD47 bispecific antibody (bispecific antibody, human IgG1, kappa, lambda)
heavy: not shown
light 1: not shown
light 2: QSVLTQPPSVSGAPGQRVTISCTGSSSNIYANSNVHWYQQLPGTAPKLLIYSGSNRPSGVPDRFSGSKSGTSASLAITGLQAEDEADYYCQSYDPAHNLLTAVFGGGTKLTVLGQPKAAPSVTLFPPSSEELQANKATLVCLISDFYPGAVTVAWKADSSPVKAGVETTTPSKQSNNKYAASSYLSLTPEQWKSHRSYSCQVTHEGSTVEKTVAPTECS
notes: kappa-lambda body, human IgG1, common heavy chain; CEA arm light chain 1D5 (AC10)
B10: K2AC28 CEAxCD47 bispecific antibody (bispecific antibody, human IgG1, kappa, lambda)
heavy: not shown
light 1: not shown
light 2: NFMLTQPHSVSESPGKTVTISCTRSSGSINDITVHWYQQRPGSSPTTVIYGYNARPSGVPDRFSGSIDSSSNSASLTISGLKTEDEADYYCQSWDGHGSAYVFGGGTKLTVLGQPKAAPSVTLFPPSSEELQANKATLVCLISDFYPGAVTVAWKADSSPVKAGVETTTPSKQSNNKYAASSYLSLTPEQWKSHRSYSCQVTHEGSTVEKTVAPTECS
notes: kappa-lambda body, human IgG1, common heavy chain; CEA arm light chain C11 (AC28)
B11: K2AC13 CEAxCD47 bispecific antibody (bispecific antibody, human IgG1, kappa, lambda)
heavy: not shown
light 1: not shown
light 2: QSALTQPASVSGSPGQSITISCTGTSSNVRYAAGVSWYQQHPGKAPKLMIYEVSNRPSGVSNRFSGSKSGNTASLTISGLQAEDEADYYCSSWDFEHGPAAKVFGGGTKLTVLGQPKAAPSVTLFPPSSEELQANKATLVCLISDFYPGAVTVAWKADSSPVKAGVETTTPSKQSNNKYAASSYLSLTPEQWKSHRSYSCQVTHEGSTVEKTVAPTECS
notes: kappa-lambda body, human IgG1, common heavy chain; CEA arm light chain 2B8 (AC13)

Legend:
[1] = target: T1, human CEACAM5 on MKN-45 cells; assay: flow cytometry on MKN45 CEA+ cancer cells (also carry CD47)
Method: (§1) Cells are harvested, counted, checked for viability and resuspended at 3×10⁶ cells/ml in FACS buffer (PBS 2% BSA, 0.1% NaN3). 100 μl of the cell suspension are distributed in V-bottom 96-well plates (3×10⁵ cells/well). The supernatant is removed by centrifugation 3 minutes at 4° C., 1300 rpm. Increasing concentrations of the antibody according to the invention are then added into the wells and incubated for 15 minutes at 4° C. Cells are washed twice with cold FACS buffer and re-incubated for further 15 minutes at 4° C. with the PE (R-phycoerythrin)-conjugated mouse anti-human IgG Fc secondary antibody (SouthernBiotech, pre-diluted 1:100 in FACS buffer). Cells are washed twice with cold FACS buffer and resuspended in 300 μl FACS buffer with 1:15000-diluted SytoxBlue (Life Technologies). Fluorescence is measured using a Cytoflex […]. Binding curves and EC50 values are obtained and calculated using GraphPad Prism? software. In the same manner binding of MAB CEA or MAB CEA1 to MKN-45 cells can be tested.

[2] = target: T4, human CD47 on MKN45 cells (human, UniProt Q08722 19-323); assay: inhibition of SIRPα-mouseFc binding to CD47 on MKN45 cells, imaging (CX5); column 'SIRPα inhibition potency'
T4 construct: whole, on cells; also called IAP
Text: Experimental set-up for the measurement of the SIRPα inhibition potency data shown for bispecific antibodies of this invention (results see table 2):
The detection of bound SIRPα cell-based assay monitoring the interaction of soluble SIRPα with human CD47 expressed at the surface of MKN45 is used for the detection of the blocking activity. Dose-response experiments with bispecific antibodies according to the invention allow determination of an IC50 value.
MKN45 cancer cells, expressing both CD47 and CEACAM5, are stained with CFSE violet to allow the imaging system (CX5) to detect the cells. Briefly, 3,000 stained MKN45 cells per well are seeded in a 384 optical well plate (Costar) and incubated for 50 minutes with increased concentrations of bispecific antibodies of the invention (1.9 pM to 333 nM, in quadruplicates). Then, a fixe concentration of SIRPα—mouseFc premixed with anti-mouse IgG-Fc AF647 coupled antibody (Jackson Immunoresearch diluted 1:2000) is added at 50 ng/mL final. After an incubation of 3H30 plates are acquired with the imaging system (CX5, Thermofisher) and fluorescence signals emitted by the detected bound SIRPα is recorded by the software dedicated to the imaging system. Fluorescence signals are plotted according to the dose range tested and IC50 are calculated by the software (Prism, Graphpad).

[3] = target: T1, human CEACAM5 on MKN-45 cells; assay: flow cytometry (FACS) on MKN-45 cells, which express CD47, CEACAM5 and CEACAM6; the legend says K2AC39 binds CEACAM5 and CEACAM6, and the curve does not separate the two
[4] = target: T2, human CEACAM6 on MKN-45 cells; assay: legend of FIG. 21A, FACS on MKN-45 cells
Method: (§2) Binding to target cells (MKN-45) expressing CD47, CEACAM5 and CEACAM6 was assessed by FACS.
as §1

[5] = target: T3, commercial shed CEA (BioRad); assay: cell-based or functional assay
[6] = target: T1, human CEACAM5 on MKN-45 cells; assay: flow cytometry (FACS) on MKN-45 cells, without shed CEA
[7] = target: T1, human CEACAM5 on MKN-45 cells; assay: flow cytometry on MKN45 CEA+ cancer cells (also carry CD47); MKN45 CEA+ cancer cells
Method: as §1

[8] = target: T2, human CEACAM6 on MKN-45 cells; assay: statement in the legend of FIG. 21A (FACS on MKN-45 cells)
Method: as §2, §1

[9] = target: T1, human CEACAM5 on MKN-45 cells; assay: flow cytometry (FACS) on MKN-45 cells, which express CD47, CEACAM5 and CEACAM6

Binder	EC50 [1] [nM]	IC50 [2] [nM]	further results
B1	132	7	
B2			EC50 (read off the curve) [3]: ~3 µg/mL; binding result [4]: binds
B3	12.5	0.86	
B4	12.7	0.32	
B5	14.5	0.72	
B6	13	0.22	
B7		0.4	shift of EC50 of the phagocytosis index curve of MKN-45 cells by 200 ng/mL shed CEA (FIG. 20B) [5]: < 4 fold; EC50 (read off the curve) [6]: ~0.3 µg/mL; EC50 [7]: 11.3 nM
B8	16.5	0.37	shift of EC50 of the phagocytosis index curve of MKN-45 cells by 200 ng/mL shed CEA (FIG. 20B) [5]: < 4 fold; binding result [8]: no binding; EC50 (read off the curve) [9]: ~1 µg/mL
B9	1.15	0.22	
B10	52.5	0.95	
B11	190	4	
